Measured values as given in the supplement of paper PMC12764529.
± gives the half width of the 95% confidence interval.

Columns and labels:
[1] = folding stability dG unfold (combined trypsin and chymotrypsin); higher = more stable
Method in brief: (§1)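 Unfolding free energy was derived, per protease or combined, against a sequence-predicted unfolded-state K50 and a shared folded-state K50, starting from K50 inferred by Bayesian fitting of sequencing counts. Digestion with trypsin and chymotrypsin was carried out on designed mini-proteins under 80 residues without cysteine in a PA-tagged cDNA display construct. Only designs with AlphaFold2 dimer inter-PAE above 15 were kept.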

[2] = folding stability dG unfold from trypsin proteolysis; higher = more stable
Method in brief: as §1

[3] = folding stability dG unfold from chymotrypsin proteolysis; higher = more stable
Method in brief: as §1

Row | Sequence | folding stability dG unfold [1] | folding stability dG unfold [2] | folding stability dG unfold [3]
1 | SDWKIVDIEREGNWYTITIQFKNPDGNPWMVTLYMPPNGPYRVEVYPPGDGKEREVRVPMDDIDEILDAISA [r9_91_TrROS] | 2.49 ± 0.11 kcal/mol | 1.33 ± 0.053 kcal/mol | 2.96 ± 0.038 kcal/mol
2 | SEAEAVTFPVPNPEDGELVADLAVARNPETGEWTVRLEHEDGKTVEVTFPEDEELPVDGLPPGLRATFTGSA [r9_1150_TrMRF] | -0.401 ± 0.13 kcal/mol | -0.195 ± 0.12 kcal/mol | -0.916 ± 0.7 kcal/mol
3 | SEEEVEEPEVRVEVREIRLDDLTEEERRRLRELAERLAREEPPEELPPGYRVRVEIRDGVIVSVEVEPVPSA [r9_905_TrROS_Hall] | 1.85 ± 0.16 kcal/mol | 1.84 ± 0.039 kcal/mol | 1.9 ± 0.075 kcal/mol
4 | SEIEIEPLTLDEPVEYRVPEGGFTITAYAAPGPLLVRVRIPGTGEEFEIAVPLGEPNWEEVAEAVVRAIRSA [r9_982_TrMRF] | 1.56 ± 0.058 kcal/mol | 1.759 ± 0.015 kcal/mol | 1.27 ± 0.086 kcal/mol
5 | SEINFKPVKVDKNGNFYVENETKPGLVEKLIEAIKELFPGVEITEIKEIPEPPKIEIKAKHPSGKEFTFGSA [r9_1164_TrMRF] | 0.825 ± 0.11 kcal/mol | 0.927 ± 0.074 kcal/mol | 0.789 ± 0.11 kcal/mol
6 | SEKLTVTLTLTVVTTETRVTYDKETGELTVETRTEVRTLTLTVTADSEEEAKRAVQELLDALEKNPELLSSA [r9_77_TrROS_Hall] | 4.66 ± 0.15 kcal/mol | 3.8 ± 0.14 kcal/mol | 4.94 ± 0.13 kcal/mol
7 | SEKLVIFVPPNMTVEEIVALAKKYPDKEIVIVMPPNMSEEQKERILKALRDAGLPEGVKVTIVEVEPEDLSA [r9_670_TrROS_Hall] | 3.85 ± 0.19 kcal/mol | 3.73 ± 0.095 kcal/mol | 3.81 ± 0.16 kcal/mol
8 | SEKRMEVEIKIPITMVVPKEMFEPDPDNGRYRFPDNGKPIRPNQVHPMPIEIKGPMPPGDAQKLLKDLLKSA [r9_165_TrROS] | -0.203 ± 0.16 kcal/mol | -0.347 ± 0.1 kcal/mol | -0.119 ± 0.11 kcal/mol
9 | SELAEEAAKRAREAFAEEHPGWDVLSVEVEVEKDPNNDVVTVTVKLTLRRESPEPREEVLEEEVTLTFPLKS [r1_181_JUSTAS] | 2.91 ± 0.067 kcal/mol | 2.14 ± 0.05 kcal/mol | 3.24 ± 0.043 kcal/mol
10 | SETVTVTVTVTVTLYRRRPDGKWVPIAELTVTVTRTVEKEDEEEARRAVREEVEDELRKLAEELGVEIEPSA [r9_356_TrROS_Hall] | 5.6 ± 0.15 kcal/mol | 3.94 ± 0.095 kcal/mol | 5.79 ± 0.12 kcal/mol
11 | SEVVLEVKVEVRVKRNENGELEVEVKVEVKLVELEPPEPRIELSEEEREKLKEEAEKLGLELTDEELEALSA [r9_487_TrROS_Hall] | 1.75 ± 0.2 kcal/mol | 1.9 ± 0.13 kcal/mol | 1.87 ± 0.15 kcal/mol
12 | SEWVKVKVEIKMPFYNGNKPMPMSIEVEYEVPPNDPGMTPEDLPPEELAKEAIEKAYDYMRKLGLPPDMFSA [r9_516_TrROS] | 2.74 ± 0.39 kcal/mol | 2.21 ± 0.19 kcal/mol | 2.97 ± 0.12 kcal/mol
13 | SEWVSFMFPFKFEPDDGKIRIKIKMKAPDGEPLGEHEHPVRRDGDKVEVMQMITFPLPKGAQLDKIEIEPSA [r9_292_TrROS] | 0.922 ± 0.24 kcal/mol | 0.778 ± 0.26 kcal/mol | 1.11 ± 0.34 kcal/mol
14 | SFFVEFGIEHNPENNYIHINFRIYEPDPNGQWRPSSSIPITIPIKIPPPPVPKIEVPEGAKDPEDAADALSA [r9_888_TrROS] | 3.75 ± 0.68 kcal/mol | 2.92 ± 0.2 kcal/mol | 4.43 ± 0.3 kcal/mol
15 | SFLSPGDKFKFPNGNNYRIENFDISYDPGNNNPMIEIELVPLPPPKPEDENKKDPDGKTKTENKYKYKGPSA [r9_914_TrROS] | 0.968 ± 0.45 kcal/mol | 0.61 ± 0.28 kcal/mol | 0.879 ± 0.5 kcal/mol
16 | SGGMEKTENGNVRPVPLPTTVVKETPPEVSPEEAKERVEKELKEKGYKNVKVTTSYDPSTNLVTITVTVESA [r9_1124_JUSTAS] | 0.564 ± 0.09 kcal/mol | 0.447 ± 0.071 kcal/mol | 0.624 ± 0.076 kcal/mol
17 | SGIGEMSPEEIAKRLAEELGLSGIEVSVSTEGNTLTIPVKAKDPVKNEEITITITITPENGGKIKITTAGSA [r9_1042_JUSTAS] | 0.444 ± 0.21 kcal/mol | 0.397 ± 0.12 kcal/mol | 0.299 ± 0.057 kcal/mol
18 | SGITPEQIEELAREIADLFPDVEIEIYPGLEPSIFDGPGAVAVIEREEGRGYITIYFPETGEPLVIEVPDSA [r9_1062_TrMRF] | 1.37 ± 0.2 kcal/mol | 1.5 ± 0.079 kcal/mol | 1.3 ± 0.033 kcal/mol
19 | SGKKIEIVKKILEELGIPIVKIEEVTPDRIVVEVEEGRRISIAIKPDDPDVVLIDPKPTEDGGWSSDLPDSA [r9_809_TrMRF] | 1.06 ± 0.12 kcal/mol | 1.26 ± 0.038 kcal/mol | 0.939 ± 0.042 kcal/mol
20 | SGMEQKVEVLRVGAPGEEAVTRFTFKFEDKEFTLEASARLPDGSLVLLDFHVYRDPEGTFRVDVVVYPGFSA [r9_255_TrMRF] | 2.93 ± 0.1 kcal/mol | 2.01 ± 0.069 kcal/mol | 3.27 ± 0.043 kcal/mol
21 | SGMLAPDATVTTTEIVFEKDPKTGLYYLTVKEKTVTVKPDSSGRLVLTTSPVTITDLGPLTPEEAEKLLSSA [r9_423_JUSTAS] | 2.51 ± 0.085 kcal/mol | 2.16 ± 0.052 kcal/mol | 2.73 ± 0.031 kcal/mol

Row | Sequence | folding stability dG unfold [1] | folding stability dG unfold [2] | folding stability dG unfold [3]
22 | SGMLLTVATKTEESELPDGGKKKVTTTTVELSGPHSVTYTPVTTLAPDGTVPASTTTVYDTVSGETTTAPSA [r9_641_JUSTAS] | 0.145 ± 0.074 kcal/mol | 0.259 ± 0.032 kcal/mol | -0.2 ± 0.058 kcal/mol
23 | SGMMNNTTITVTDSEPLPDGSVLTNALTFTSSSAGISSPLDLSLSKTPVSSSTTYTNNGVAPASISLNSLSA [r9_1113_JUSTAS] | 0.697 ± 0.049 kcal/mol | 0.678 ± 0.019 kcal/mol | 0.611 ± 0.075 kcal/mol
24 | SGMPTLEIEIEFPEVKGETPVPGTDRTLIDTPMKITVTKIENGPPETVEVELPPKLWTEEIEERIKKILGSA [r9_656_JUSTAS] | 0.485 ± 0.47 kcal/mol | -0.248 ± 0.66 kcal/mol | 1.2 ± 0.27 kcal/mol
25 | SGMTSSFEVSPVGDILVVTVSLHFPGLGLSSTASATQDPSSDSMSLDLTIPFPPEDLAPLSLSLSLKPPESA [r9_887_JUSTAS] | 2.87 ± 0.23 kcal/mol | 2.61 ± 0.12 kcal/mol | 3.62 ± 0.27 kcal/mol
26 | SGPGPEKIKEIIKKLFPNLKIESIEEDPATGKYTIKFPNGYTVEVEVPPDGTVTLTVKTPNSTTTFTVPESA [r9_304_JUSTAS] | 2.26 ± 0.063 kcal/mol | 2.15 ± 0.086 kcal/mol | 2.32 ± 0.031 kcal/mol
27 | SGPTSTVDPEFPGSTPGGTVTPSVVRVPVPPDEVERVIEEIRERAGVPGLKVERVERTADGVVLIEVSLPSA [r9_1101_JUSTAS] | 0.882 ± 0.066 kcal/mol | 0.36 ± 0.029 kcal/mol | 1.15 ± 0.015 kcal/mol
28 | SGPVPLPVEVTFEPNSETTVTLPSGRTYTVPTPPNGSATATADPATGVVTITVTSGSSTTTLTFPVPAELSA [r9_226_JUSTAS] | 0.592 ± 0.051 kcal/mol | 0.361 ± 0.006 kcal/mol | 0.712 ± 0.033 kcal/mol
29 | SGQHKVTVPIEIRIYPPDPDGKWKPIGEIPIPVTYEYPKDQPEKAERQAREQVIDEIKKFAKKNGYRIYISA [r9_356_TrROS] | 0.361 ± 0.2 kcal/mol | 0.452 ± 0.15 kcal/mol | 0.287 ± 0.36 kcal/mol
30 | SGSFASVTEDSLPDGGGYIVATEVSTGASRVYPPGTVVAEPAPADSTLVETLYDPATGEPLSTTTRTVAASA [r9_209_JUSTAS] | -0.0457 ± 0.11 kcal/mol | -0.712 ± 0.2 kcal/mol | 0.00381 ± 0.13 kcal/mol
31 | SGSMTIKLTPDSPVEDVVKFIAENPNVNVTLLMPPEMSEELREKFEKALKEANVPKSQKVTFEVVPPGEESA [r9_670_JUSTAS] | 3.55 ± 0.15 kcal/mol | 2.6 ± 0.14 kcal/mol | 3.87 ± 0.099 kcal/mol
32 | SGSPSDDIVTTPLPGPSERATFPDGSSISRSPAGVTTTTSPTSITTTTTTPSATVTSTTTSLPPPSPSAPSA [r9_901_JUSTAS] | -0.0591 ± 0.07 kcal/mol | -0.696 ± 0.034 kcal/mol | 0.184 ± 0.015 kcal/mol
33 | SGSSMGPPDVKERLIDIPSSELSPEVLEEIIEEAIKEGYSVVTINIPEGKYITIELKDGKVTKITEKSLESA [r9_905_JUSTAS] | 1.76 ± 0.088 kcal/mol | 1.84 ± 0.035 kcal/mol | 1.75 ± 0.047 kcal/mol
34 | SGSTTLKTTTIPEGPLTVETTISPDGVVTGTIYDPEGKKIADYTMTYTWTTLPNGEKRLETVTVTINLGLSA [r9_434_JUSTAS] | 2.35 ± 0.07 kcal/mol | 1.9 ± 0.05 kcal/mol | 2.55 ± 0.063 kcal/mol
35 | SGSVELSFDPSKPYKVKITATAPKDGTPYEVSGTTDPATGTITLPIRRPGSGEPLPPEELEFEIEVSPPESA [r9_928_JUSTAS] | 0.167 ± 0.066 kcal/mol | -0.244 ± 0.071 kcal/mol | 0.342 ± 0.12 kcal/mol
36 | SGYVVRIYRPNEKGEPVKIVLPDEEAEELYKELVDEEMSVEEFAERLKKLFPDAKVEVRKAEDIPPEELLSA [r9_1085_TrMRF] | 2 ± 0.058 kcal/mol | 2.13 ± 0.07 kcal/mol | 1.85 ± 0.023 kcal/mol
37 | SIFRIRMPGNREFRIFIPPDGMVNVSMPNGKKHTHPFKDKEDAKEIADVLSKHFPNMPVEIEPIPPDDIKSA [r9_1206_TrROS] | 0.793 ± 0.37 kcal/mol | 1.26 ± 0.11 kcal/mol | 0.166 ± 0.91 kcal/mol
38 | SIKIERDGDKIKITFKVPGPFRIMIFNNDEIQETTIPPGKPVKIEIDIPKGNFYIMIYFPGKPLAQIPFKSA [r9_411_TrROS] | 2.19 ± 0.31 kcal/mol | 2.27 ± 0.19 kcal/mol | 1.96 ± 0.17 kcal/mol
39 | SIKIQVHMWPDGFYVIKVRFPGNGKPIHIPFPPNETAEEQVDKIANNLWKQHGFEPVEVDIYPMPKPLPPSA [r9_1205_TrROS] | 2.15 ± 0.12 kcal/mol | 1.81 ± 0.088 kcal/mol | 2.25 ± 0.034 kcal/mol
40 | SIMIMIPPGEEIEITIEKLKDVEVMIFNNGKVREQRVPPGEEIKFELPPGAKGFMIMIKGPNGKAQMITLSA [r9_143_TrROS] | 2.66 ± 0.4 kcal/mol | 2.74 ± 0.25 kcal/mol | 2.75 ± 0.081 kcal/mol
41 | SIRPGQRIDSLEEVKEIAHRIAEEIQKEHGHPYKVTVNVEYYPEEDGRWYVKAKWYMPNNGKPIREITIMSA [r9_794_TrROS] | 1.71 ± 0.19 kcal/mol | 1.53 ± 0.059 kcal/mol | 1.88 ± 0.1 kcal/mol
42 | SKAEILEAPAVFNPESESATLYYLVKVTFPDPSVKLIPGVFPADYTPEQAAEEILARFKSLGLESATITPSA [r9_1203_TrMRF] | 1.57 ± 0.19 kcal/mol | 1.5 ± 0.15 kcal/mol | 1.46 ± 0.12 kcal/mol
